Results as given in US20260098088A1 (DISC MEDICINE, published 2026).

T1: membrane-bound human RGMc (human, UniProt Q6ZVN8 36-400)
T1 sequence: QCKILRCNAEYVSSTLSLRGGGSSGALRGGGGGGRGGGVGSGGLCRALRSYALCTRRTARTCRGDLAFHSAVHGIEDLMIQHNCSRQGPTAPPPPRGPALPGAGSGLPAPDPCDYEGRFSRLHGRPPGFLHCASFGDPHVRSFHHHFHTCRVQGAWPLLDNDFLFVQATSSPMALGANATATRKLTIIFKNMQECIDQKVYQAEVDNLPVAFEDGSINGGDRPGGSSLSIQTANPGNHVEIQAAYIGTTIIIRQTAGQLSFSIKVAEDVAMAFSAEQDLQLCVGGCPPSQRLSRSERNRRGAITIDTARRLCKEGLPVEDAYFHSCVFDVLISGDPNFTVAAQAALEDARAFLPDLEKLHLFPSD

T2: membrane-bound human RGMa (human, UniProt Q96B86 169-424)
T2 sequence (looked up): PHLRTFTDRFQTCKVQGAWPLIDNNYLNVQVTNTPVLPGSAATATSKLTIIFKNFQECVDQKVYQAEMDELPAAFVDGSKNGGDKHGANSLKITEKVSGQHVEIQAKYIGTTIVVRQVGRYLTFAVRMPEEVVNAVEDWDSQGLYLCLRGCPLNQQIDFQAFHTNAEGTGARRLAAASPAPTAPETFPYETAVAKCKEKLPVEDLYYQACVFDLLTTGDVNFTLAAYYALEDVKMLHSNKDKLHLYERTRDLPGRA


Tests used:
Experiment in all cases: cell-based or functional assay
[1] = target: T1, membrane-bound human RGMc
[2] = target: T1, membrane-bound human RGMc; remark: listed apart in the source
[3] = target: T2, membrane-bound human RGMa

Binder	Potency on membrane hRGMc (RGMc/BMP reporter assay) IC50 [1] [pM]	IC50 (nM), BMP reporter assay for RGMc [2] [nM]	Potency on membrane hRGMa (RGMa/BMP reporter assay) IC50 [3] [pM]
hHA-008 (antibody, human IgG1, kappa, L234A L235A) heavy: not shown light: DVVLTQSPLSLPVTLGQPASISCRSSQSLEESDGYTFLHWFQQRPGQSPRLLIYEVSTRFSGVPDRFSGSGSGTDFTLKISRVEAEDVGVYYCFQATHDPLTFGQGTKLEIKRTVAAPSVFIFPPSDEQLKSGTASVVCLLNNFYPREAKVQWKVDNALQSGNSQESVTEQDSKDSTYSLSSTLTLSKADYEKHKVYACEVTHQGLSSPVTKSFNRGEC	370	0.377	–
hHA-004 (antibody, human IgG1, kappa, L234A L235A, V domains shown) VH: EVQLVESGGGLVQPGGSLRLSCAASGFTFSNYGMNWIRQAPGKGLEWIGMIYYDSSEKHYADSVKGRFTISRDNSKNTLYLQMNSLRAEDTAVYYCAKGTTPDYWGQGTMVTVSS VL: DVVLTQSPLSLPVTLGQPASISCRSSQSLESSDGDTFLEWFQQRPGQSPRLLIYDVSTRFSGVPDRFSGSGSGTDFTLKISRVEAEDVGVYYCFQVTHDPVTFGQGTKLEIKR	310	0.312	2000

Next, values leading:

Potency on membrane hRGMc (RGMc/BMP reporter assay) IC50 [1] [pM]	IC50 (nM), BMP reporter assay for RGMc [2] [nM]	Potency on membrane hRGMa (RGMa/BMP reporter assay) IC50 [3] [pM]	Binder
520	0.0554	1700	hHA-011 (antibody, human IgG1, kappa, L234A L235A, V domains shown) VH: EVQLVESGGGLVQPGGSLRLSCAASGFTFSNYGMNWVRQAPGKGLEWIGMIYYDSSEKHYADSVKGRFTISRDNSKNTLYLQMNSLRAEDTAVYYCAKGSTPDYWGQGTMVTVSS VL: DVVLTQSPLSLPVTLGQPASISCRSSQSLEDSDGGTFLEWFQQRPGQSPRLLIYDVSSRFSGVPDRFSGSGSGTDFTLKISRVEAEDVGVYYCFQATHDPLSFGQGTKLEIKR
1360	1.36	–	hHA-009 (antibody, human IgG1, kappa, L234A L235A, V domains shown) VH: EVQLVESGGGLVQPGGSLRLSCAASGFTFSNYGMNWVRQAPGKGLEWIGMIYYDSSEKHYADSVKGRFTISRDNSKNTLYLQMNSLRAEDTAVYYCAKGTTPDYWGQGTMVTVSS VL: DVVLTQSPLSLPVTLGQPASISCRSSQSLADSDGDTFLHWFQQRPGQSPRLLIYAVSHRFSGVPDRFSGSGSGTDFTLKISRVEAEDVGVYYCFQATHDPVTFGQGTKLEIKR
